Patent US20200079854A1 (Johns Hopkins, published 2020)

B1: KRAS_G12CV_A3_c15 (scFv)
scFv: DIQMTQSPSSLSASVGDRVTITCRASQDVNTAVAWYQQKPGKAPKLLIYSASFLYSGVPSRFSGSRSGTDFTLTISSLQPEDFATYYCQQSYGSGSPWTFGQGTKVEIKRTGGGSGGGGSGGGASEVQLVESGGGLVQPGGSLRLSCAASGFNIVGGGIHWVRQAPGKGLEWVAKIYPQGDYTYYADSVKGRFTISADTSKNTAYLQMNSLRAEDTAVYYCSRDSSYLAFDYWGQGTLVTVSS
B2: KRAS G12V_A3_c122 (scFv)
scFv: DIQMTQSPSSLSASVGDRVTITCRASQDVNTAVAWYQQKPGKAPKLLIYSASFLYSGVPSRFSGSRSGTDFTLTISSLQPEDFATYYCQQGAYYRPFTFGQGTKVEIKRTGGGSGGGGSGGGASEVQLVESGGGLVQPGGSLRLSCAASGFNISYSYMHWVRQAPGKGLEWVATLLPYDGNTYYADSVKGRFTISADTSKNTAYLQMNSLRAEDTAVYYCSRAAYSSMDVWGQGTLVTVSS
B3: KRAS G12V_A3_c120 (scFv)
scFv: DIQMTQSPSSLSASVGDRVTITCRASQDVNTAVAWYQQKPGKAPKLLIYSASFLYSGVPSRFSGSRSGTDFTLTISSLQPEDFATYYCQQKSEYSPWTFGQGTKVEIKRTGGGSGGGGSGGGASEVQLVESGGGLVQPGGSLRLSCAASGFNIYRYGIHWVRQAPGKGLEWVAVLYPYGYSTSYADSVKGRFTISADTSKNTAYLQMNSLRAEDTAVYYCSRSYAYGYFAYWGQGTLVTVSS
B4: KRAS G12V_A3_V12 (scFv)
scFv: DIQMTQSPSSLSASVGDRVTITCRASQDVNTAVAWYQQKPGKAPKLLIYSASFLYSGVPSRFSGSRSGTDFTLTISSLQPEDFATYYCQQASYYYPLTFGQGTKVEIKRTGGGSGGGGSGGGASEVQLVESGGGLVQPGGSLRLSCAASGFNISASGMHWVRQAPGKGLEWVADIHPLKPYTNYADSVKGRFTISADTSKNTAYLQMNSLRAEDTAVYYCSRYSSMYYYYFDYWGQGTLVTVSS
B5: KRAS G12V_A3_c121 (scFv)
scFv: DIQMTQSPSSLSASVGDRVTITCRASQDVNTAVAWYQQKPGKAPKLLIYSASFLYSGVPSRFSGSRSGTDFTLTISSLQPEDFATYYCQQSGYIPFTFGQGTKVEIKRTGGGSGGGGSGGGASEVQLVESGGGLVQPGGSLRLSCAASGFNIYGTMMHWVRQAPGKGLEWVAQFKPDSYNTYYADSVKGRFTISADTSKNTAYLQMNSLRAEDTAVYYCSRGEVYHYYAFDYWGQGTLVTVSS
B6: KRAS_G12D_A11_D22 (scFv)
scFv: DIQMTQSPSSLSASVGDRVTITCRASQDVNTAVAWYQQKPGKAPKLLIYSASFLYSGVPSRFSGSRSGTDFTLTISSLQPEDFATYYCQQYEYYPMTFGQGTKVEIKRTGGGSGGGGSGGGASEVQLVESGGGLVQPGGSLRLSCAASGFNVMYSTMHWVRQAPGKGLEWVASIYSWSDYTYYADSVKGRFTISADTSKNTAYLQMNSLRAEDTAVYYCSRGYAHNSFDYWGQGTLVTVSS
B7: KRAS_G12D_A11_D21 (scFv)
scFv: DIQMTQSPSSLSASVGDRVTITCRASQDVNTAVAWYQQKPGKAPKLLIYSASFLYSGVPSRFSGSRSGTDFTLTISSLQPEDFATYYCQQYAYYSPVTFGQGTKVEIKRTGGGSGGGGSGGGASEVQLVESGGGLVQPGGSLRLSCAASGFNIYGQMMHWVRQAPGKGLEWVAFLSPFSGNTYYADSVKGRFTISADTSKNTAYLQMNSLRAEDTAVYYCSRNISYEQSSAFDYWGQGTLVTVSS
B8: KRAS_G12V_A2_A1 (scFv)
scFv: DIQMTQSPSSLSASVGDRVTITCRASQDVNTAVAWYQQKPGKAPKLLIYSASFLYSGVPSRFSGSRSGTDFTLTISSLQPEDFATYYCQQWYSSPVTFGQGTKVEIKRTGGGSGGGGSGGGASEVQLVESGGGLVQPGGSLRLSCAASGFNINWANMHWVRQAPGKGLEWVAQISPPYDYTNYADSVKGRFTISADTSKNTAYLQMNSLRAEDTAVYYCSRSYSYYFDYWGQGTLVTVSS
B9: KRAS_G12V_A2_A5 (scFv)
scFv: DIQMTQSPSSLSASVGDRVTITCRASQDVNTAVAWYQQKPGKAPKLLIYSASFLYSGVPSRFSGSRSGTDFTLTISSLQPEDFATYYCQQWYSSPVTFGQGTKVEIKRTGGGSGGGGSGGGASEVQLVESGGGLVQPGGSLRLSCAASGFNIYWSHMHWVRQAPGKGLEWVAIISSFEGYTYYADSVKGRFTISADTSKNTAYLQMNSLRAEDTAVYYCSRSYSYYMDYWGQGTLVTVSS
B10: KRAS_G12V_A2_C1 (scFv)
scFv: DIQMTQSPSSLSASVGDRVTITCRASQDVNTAVAWYQQKPGKAPKLLIYSASFLYSGVPSRFSGSRSGTDFTLTISSLQPEDFATYYCQQYYSRPVTFGQGTKVEIKRTGGGSGGGGSGGGASEVQLVESGGGLVQPGGSLRLSCAASGFNIYLHDMHWVRQAPGKGLEWVAQIIPAIDYTNYADSVKGRFTISADTSKNTAYLQMNSLRAEDTAVYYCSRRDGYYFDYWGQGTLVTVSS
B11: KRAS_G12D_A3_D12 (scFv)
scFv: DIQMTQSPSSLSASVGDRVTITCRASQDVNTAVAWYQQKPGKAPKLLIYSASFLYSGVPSRFSGSRSGTDFTLTISSLQPEDFATYYCQQSSSSPITFGQGTKVEIKRTGGGSGGGGSGGGASEVQLVESGGGLVQPGGSLRLSCAASGFNISGYGMHWVRQAPGKGLEWVAYLYGGSDYTNYADSVKGRFTISADTSKNTAYLQMNSLRAEDTAVYYCSRTVRYAFDYWGQGTLVTVSS
B12: KRAS_G12D_A3_D15 (scFv)
scFv: DIQMTQSPSSLSASVGDRVTITCRASQDVNTAVAWYQQKPGKAPKLLIYSASFLYSGVPSRFSGSRSGTDFTLTISSLQPEDFATYYCQQSSASPLTFGQGTKVEIKRTGGGSGGGGSGGGASEVQLVESGGGLVQPGGSLRLSCAASGFNVSSVGMHWVRQAPGKGLEWVAYIYGTSDYTYYADSVKGRFTISADTSKNTAYLQMNSLRAEDTAVYYCSRSSRYSMDYWGQGTLVTVSS
B13: KRAS_G12D_A3_D26 (scFv)
scFv: DIQMTQSPSSLSASVGDRVTITCRASQDVNTAVAWYQQKPGKAPKLLIYSASFLYSGVPSRFSGSRSGTDFTLTISSLQPEDFATYYCQQYAYSPLTFGQGTKVEIKRTGGGSGGGGSGGGASEVQLVESGGGLVQPGGSLRLSCAASGFNVSSYGMHWVRQAPGKGLEWVAFIAPRRDYTSYADSVKGRFTISADTSKNTAYLQMNSLRAEDTAVYYCSRKSSYYFDYWGQGTLVTVSS
B14: KRAS_G12D_A3_c111 (scFv)
scFv: DIQMTQSPSSLSASVGDRVTITCRASQDVNTAVAWYQQKPGKAPKLLIYSASFLYSGVPSRFSGSRSGTDFTLTISSLQPEDFATYYCQQYMYSPVTFGQGTKVEIKRTGGGSGGGGSGGGASEVQLVESGGGLVQPGGSLRLSCAASGFNVSAYWMHWVRQAPGKGLEWVAQIYGGSGYTMYADSVKGRFTISADTSKNTAYLQMNSLRAEDTAVYYCSRTHSYWSAFDYWGQGTLVTVSS
B15: CTNNB_S45_FA3 c19 (scFv)
scFv: DIQMTQSPSSLSASVGDRVTITCRASQDVNTAVAWYQQKPGKAPKLLIYSAYFLYSGVPSRFSGSRSGTDFTLTISSLQPEDFATYYCQQIHYKPLTFGQGTKVEIKRTGGGSGGGGSGGGASEVQLVESGGGLVQPGGSLRLSCAASGFNVAWYSIHWVRQAPGKGLEWVAQVYGGSSYTYYADSVKGRFTISADTSKNTAYLQMNSLRAEDTAVYYCSRDFYSSGMDYWGQGTLVTVSS
B16: CTNNB_S45_FA3_c14 (scFv)
scFv: DIQMTQSPSSLSASVGDRVTITCRASQDVNTAVAWYQQKPGKAPKLLIYSASFLYSGVPSRFSGSRSGTDFTLTISSLQPEDFATYYCQQRAYFPITFGQGTKVEIKRTGGGSGGGGSGGGASEVQLVESGGGLVQPGGSLRLSCAASGFNFSDYGMHWVRQAPGKGLEWVAMLIPASGYTNYADSVKGRFTISADTSKNTAYLQMNSLRAEDTAVYYCSRGWSYYMDYWGQGTLVTVSS
B17: CTNNB_S45_FA3 c17 (scFv)
scFv: DIQMTQSPSSLSASVGDRVTITCRASQDVNTAVAWYQQKPGKAPKLLIYSASFLYSGVPSRFSGSRSGTDFTLTISSLQPEDFATYYCQQQYAYTPITFGQGTKVEIKRTGGGSGGGGSGGGASEVQLVESGGGLVQPGGSLRLSCAASGFNVWSYGIHWVRQAPGKGLEWVAGVTPDGSYTYYADSVKGRFTISADTSKNTAYLQMNSLRAEDTAVYYCSRSYGWAMDYWGQGTLVTVSS
B18: CTNNB_S45_FA3_c13 (scFv)
scFv: DIQMTQSPSSLSASVGDRVTITCRASQDVNTAVAWYQQKPGKAPKLLIYSAYFLYSGVPSRFSGSRSGTDFTLTISSLQPEDFATYYCQQIYTSPITFGQGTKVEIKRTGGGSGGGGSGGGASEVQLVESGGGLVQPGGSLRLSCAASGFNFITTGMHWVRQAPGKGLEWVARIGPGSDYTNYADSVKGRFTISADTSKNTAYLQMNSLRAEDTAVYYCSRYYYASALDYWGQGTLVTVSS
B19: CTNNB_S45F_A3_E10 (scFv)
scFv: DIQMTQSPSSLSASVGDRVTITCRASQDVNTAVAWYQQKPGKAPKLLIYSASFLYSGVPSRFSGSRSGTDFTLTISSLQPEDFATYYCQQSYYSPPTFGQGTKVEIKRTGGGSGGGASEVQLVESGGGLVQPGGSLRLSCAASGFNINNTYIHWVRQAPGKGLEWVASIYPTDGYTRYADSVKGRFTISADTSKNTAYLQMNSLRAEDTAVYYCSRTYYSYYSAMDVWGQGTLVTVSS

Target: T1, KRAS wt(7-16) peptide … with HLA-A3 and b2M on cells (human)
T1 construct: peptide-pulsed T2A3 cells in flow cytometry
Assay: flow cytometry, phage-displayed scFv on peptide-pulsed T2A3 cells (FIG. 6)
Description: (§1) Cells were stained with 10 μL of precipitated phage per 100 μL of cells, washed and stained with rabbit anti-M13 antibody, then washed and stained with anti-Rabbit-PE antibody. Cells were stained with a live/dead Near-IR dye, washed, and analyzed by an LSRII flow cytometer.
(§2) The pulsed cells were pelleted, washed once in cold stain buffer (PBS containing 0.5% BSA, 2 mM EDTA, and 0.1% sodium azide), and resuspended in 100 μL of stain buffer. Phage staining was performed on ice with 10 uL (approximately 1×10⁹) phage for 1 hour in 100 uL total volume, followed by one 4 mL wash in cold stain buffer. Cells were then stained with 1 uL of rabbit anti-M13 antibody (Pierce, Rockford, Ill.) in 100 uL total volume on ice for 1 hour and washed once with 4 mL of cold stain buffer. Cells were stained with anti-rabbit-PE (Biolegend) on ice for 1 hour in 100 uL total volume, followed by incubation with LIVE/DEAD Fixable Near-IR Dead Cell Stain (Thermo Fisher) for 10 min at room temperature per manufacturer's instructions. Cells were washed once in 4 mL of stain buffer followed by resuspension in 300 uL of stain buffer before analysis. Stained cells were analyzed using an LSRII flow cytometer (Becton Dickinson, Mansfield, Mass.).

Binding result, no binding:
B1

Target: T1, KRAS wt(7-16) peptide … with HLA-A3 and …
Assay: flow cytometry, phage-displayed scFv on peptide-pulsed T2A3 cells (FIG. 7)
Description: as §2

Binding result, no binding:
B2, B3, B4, B5

Target: KRAS wt(7-16) peptide … with HLA-A11 and b2M on peptide-pulsed Hs611.T cells (human)
Assay: flow cytometry, phage-displayed scFv on peptide-pulsed Hs611.T cells (FIG. 9)
Description: (§3) Cells were stained with 10 of precipitated phage per 100 μL of cells, washed and stained with rabbit anti-M13 antibody, then washed and stained with anti-Rabbit-PE antibody. Cells were stained with a live/dead Near-IR dye, washed, and analyzed by an LSRII flow cytometer.
as §2

Binding result, no binding:
B6, B7

Target: KRAS wt(6-14) peptide … with HLA-A2 and b2M on peptide-pulsed T2 cells (human)
Assay: flow cytometry, phage-displayed scFv on peptide-pulsed T2 cells (FIG. 5)
Description: as §1, §2

Binding result, no binding:
B8, B9, B10

Target: T1, KRAS wt(7-16) peptide … with HLA-A3 and …
Assay: flow cytometry, phage-displayed scFv on peptide-pulsed T2A3 cells (FIG. 8)
Description: as §1, §2

Binding result, no binding:
B11, B12, B13, B14

Target: CTNNB wt(41-49) peptide … with HLA-A3 and b2M on peptide-pulsed T2A3 cells (human)
Assay: flow cytometry, phage-displayed scFv on peptide-pulsed T2A3 cells (FIG. 12)
Description: as §3, §2

Binding result, no binding:
B15, B16, B17, B18, B19
